From the nanobody polyreactivity screen of Harvey et al. (2022) come the findings set out here.

A short description of the data set: yeast display, Sf9 membrane polyspecificity reagent, FACS + sequencing; frameworks hold sequencing errors. The method, boiled down:
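Using colony PCR, genes from sorted yeast display clones were amplified, then sequenced on MiSeq at 2 × 250 and filtered by CDR length. The clones had been stained with 10% biotinylated, detergent-solubilized Sf9 membrane reagent for 1 hour at 4 °C and sorted by FACS into low and high (top ~1%) gates on anti-HA and streptavidin fluorescence. Polyreactivity labels come from the gate of origin.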
“QVQLVESGGGLVQAGGSLRLSCAASGRILKYNAMGWYRQAPGKERELVAAISYRGGSTYYADSVKGRFTISRDNAKNTVYLQMNSLKPEDTAVYYCNAGGGILNGPLFDYWGQGTQVTVSS”: the “polyreactivity (PSR sort gate)” value is on record as “low polyreactivity”.
The entry for “QVQLVESGGGLVQAGGSLRLSCAASGRILLRYAMGWYRQAPGQERELVAAISQRGGRTYYADSVKGRFTISRDNAKNTVNLQMNSLKPEDTAVYYCAAASQQRSPRYGYWGQGTQVTVSS” is “high polyreactivity”; for “QVQLVESGGGLVQAGGSLRLSCAASGRILLYKAMGWYRQAPGKERELVAAISRSGGSTYYADSVKGRFTISRDNAKNTVYLQMNSLKPEDTAVYYCAAQHGYPRYYFWGQGTQVTVSS” it is “high polyreactivity”.
As for “QVQLVESGGGLVQAGGSLRLSCAASGRILLYNAMGWYRQAPGKERELVAAISRSGGYTYYADSVNWRFTISRDNAKNTVYLQMNSLKPEDTAVYYCAAQHGYPRYYYWGQGTQVTVSS”, the entry is “high polyreactivity”; as for “QVQLVESGGGLVQAGGSLRLSCAASGRILPGYAMGWYRQAPGKERELVAAIRGNGDSTYYADSVKGRFTISRDNAKNTVYLQMNSLKPEDTAVYFCAARRVSTIARDSYRGRKYGYWGQGTQVTVSS”, “low polyreactivity”; as for “QVQLVESGGGLVQAGGSLRLSCAASGRILPYNVMGWYRQAPGKEWEFVAAITGSGGDTYYADSVKGRFTISRDTAKNTVYLQMNSLKPEDTAVYYCAAAPYIGGSFGQTPGSGYWGQGTQVTVSS”, “low polyreactivity”.
The entry for “QVQLVESGGGLVQAGGSLRLSCAASGRILRPYAMGWYRQAPGKERELDAGITVRGGTTYYADSVKGRFTISRDNAKNTVYLQMNILKPEDTAVYYCAATDIHYGPSYIPYWYGYCGQGTQVTVSS” is “high polyreactivity”; for “QVQLVESGGGLVQAGGSLRLSCAASGRILRYYAMGWYRQAPGKERELVASITSGGSTYYADSVKGRFTISRDNAKNTVSLQMNSLKPEDTAVYYCAARNSYRVDLSYYAYDYWGQGTQVTVSS” it is “high polyreactivity”; for “QVQLVESGGGLVQAGGSLRLSCAASGRILSSNAMGWYRQAPRKERELVAAISWSGGSTYYADSVKGRFTISRDNAKNTVYFQMNSLKPEDTAVYYCAAPFTTTFDYWGKGTQVTVSS” it is “low polyreactivity”.
For the sequence “QVQLVESGGGLVQAGGSLRLSCAASGRILSVYAMGWYRQAPGKERELVAAIDYSGGSTNYADSVKGRFTISRDNAKNTVYLQMNSLKPEDTAVYYCNREGGAIAWRYLLEYLYSWGQGTQVTVSS”, the “polyreactivity (PSR sort gate)” value was “low polyreactivity”.
The entry for “QVQLVESGGGLVQAGGSLRLSCAASGRILSVYAMGWYRQAPGKERELVAAIEYSGGSTNYADSVKVRFTISRDTSKHTVYLLMNSLLPEDTAVYYCNGEGGAIAWRYLLEYLYSWGQGTQVTVSS” is “low polyreactivity”.
As for “QVQLVESGGGLVQAGGSLRLSCAASGRILVLNAMGWYRQAPGKERELVADITSGGSTYYADSVKGRFTISRDNAKNTVYLQMNSLKPEDTAVYYCAADLPYSLDYRSEDDYWGQGTQVTVSS”, the entry is “low polyreactivity”; as for “QVQLVESGGGLVQAGGSLRLSCAASGRILVPYAMGWYRQAPGKERELVDAISSGGSTKYADSVKGRFTISRDNAKNTVYLQMNSLKPEDTAVYYCASRIGSGSYPYPRYDYWGQGTQVTVSS”, “high polyreactivity”.
The entry for “QVQLVESGGGLVQAGGSLRLSCAASGRILVQNDMGWYRQEPGKERELVAAIRSDGSTSYADSVKGRFTISRDNAKNTVYLQMNSLKPEDTAFYYCAARIDWTGGEYDYWGQGTQVTVSS” is “low polyreactivity”; for “QVQLVESGGGLVQAGGSLRLSCAASGRILVYNTMGWSRQAPGKERELVAGIRRGGSTDYADSVKGRFTISRDNAKNTVYLQMNSLNAEDTAVYYCNARYSTGYTKLGYWGQGTQVTVSS” it is “low polyreactivity”; for “QVQLVESGGGLVQAGGSLRLSCAASGRILVYYAMGWYRQAPGKERELVAAIRSSGSSTYYSDSVKGRFTISRDNAKNTVYLQMNSLKPEDTAVYYCAAYYYIGGKYGSQVYEYDYWGQGTQVTVSS” it is “low polyreactivity”.
For “QVQLVESGGGLVQAGGSLRLSCAASGRILWGYAMGWYRQAPGKERELVAAITWSTGTTSYADSVKGRFTISRDNAKNTVYLQMNSLKPEDTAVYYCARRQWRTQLVYGSRRDYWGQGTQVTVSS”, the “polyreactivity (PSR sort gate)” value is “low polyreactivity”.
The entry for “QVQLVESGGGLVQAGGSLRLSCAASGRILWNAMGWYRQAPGKERELVAGITYSGGSTYYADSVKGRFTISRDNAKNTVYLQMNSLKPEDTAVYYCNAGVGARESDYWGQGTQVTVSS” is “low polyreactivity”; for “QVQLVESGGGLVQAGGSLRLSCAASGRILWSYAMGWYRQAPGKEREFVATINRSGGNTHYADSVKGRFTISRDNAKNTVYLQMNSLKPEDTAVYYCAARNLVPYGYQGLRYYYWGQGTQVTVSS” it is “high polyreactivity”.
The entry for “QVQLVESGGGLVQAGGSLRLSCAASGRILYIYAMGWYRQAPGKERELVASISWTDGSTYYADSVKGRFTISRDNAKNTVYLQMNSLKPEDTAVYYCNAAYYYYWDLKKYNYWGQGTQVTVSS” is “low polyreactivity”; for “QVQLVESGGGLVQAGGSLRLSCAASGRILYIYAMGWYRQAPGKERELVASISWTDGSTYYADSVKGRFTISRDNAKNTVYLQMNSLKPEDTAVYYCNAAYYYYWELKKYNYWGPGTQVTVSS” it is “low polyreactivity”; for “QVQLVESGGGLVQAGGSLRLSCAASGRILYNYAMGWYRQAPGKERELVAAISSGGSTNYADSVKGRFTISRDNAKNTVYLQMNSLKPEDTAVYYCAAYRGHSWRGLYRWSDYDYWGQGTQVTVSS” it is “low polyreactivity”.
For “QVQLVESGGGLVQAGGSLRLSCAASGRILYRNTMGWYRQAPGKERELVAAISRSGGSTYYADSVKGRFTISRDNAKNTVYLQMNSLKPEDTAVYYCAKSVVARGASTYIGGFYYWGQGTQVTVSS”, the “polyreactivity (PSR sort gate)” value is given as “high polyreactivity”.
Consider “QVQLVESGGGLVQAGGSLRLSCAASGRILYYYAMGWYRQAPGKERELVAAISWSGGSTYYADSVKGRFTISRDNAKNTVYLQMNSLKPEDTAVYYCAADWRGYRLERAYDYWGQGTQVTVSS”, for which the “polyreactivity (PSR sort gate)” value is on record as “low polyreactivity”.
As for “QVQLVESGGGLVQAGGSLRLSCAASGRILYYYDMGWYRQAPGKERELVARIGGTYYADSVKGRFTISRDNAKNTVYLQMNSLKPEDTAVYYCAAEYGYDFFRSYQEYGYWGQGTQVTVSS”, the entry is “low polyreactivity”; as for “QVQLVESGGGLVQAGGSLRLSCAASGRIQYNAMGWYRQAPGKEREFVAAISWSGGTTYYADSVKGRFTISRDNAKNTVYLQMNSLKPEDTAVYYCATPYTHWGQGTQVTVSS”, “high polyreactivity”; as for “QVQLVESGGGLVQAGGSLRLSCAASGRISGLYAMGWYRQAPGKERELVAAITTSADRTYYADSVKGRFTISRDNAKNTVYLQMNSLKPEDTAVYYCAADSSRPRMYYWGQGTQVTVSS”, “low polyreactivity”.
The entry for “QVQLVESGGGLVQAGGSLRLSCAASGRISGWYAMGWYRQAPGKERELVASISSSGGSTYYADSVEGRFTISRDNAKNTVYFQMNSLKPEDTAVYYCAVRRYNWSFYRGYDYWGQGTQVTVSS” is “high polyreactivity”.
For “QVQLVESGGGLVQAGGSLRLSCAASGRISGYAMGWDRQAPGKERELVAAISTRGGTTYYADSVKGRFTISRDNAKNTVQLQMNSLKPEDTAVYYCNAASSRWPEYDYWGQGTQVTVSS”, the “polyreactivity (PSR sort gate)” value is reported as “high polyreactivity”.
The entry for “QVQLVESGGGLVQAGGSLRLSCAASGRISHRNAMGWYRQAPGKERELVAAITSGGSTNYADSVKGRFTISRDNAKNTVYLQMNSLKPEDTAVYYCTTTTYHWYYYRWEIFDYWGQGTQVTVSS” is “low polyreactivity”.
As for “QVQLVESGGGLVQAGGSLRLSCAASGRISPNNVMGWYRQAPGKERELVAVISRSGDRTNYADSVKGRFTISRDNAKNTVYLQMNSLKPEDTAVYYCAARVVADKYRYDYWGQGTQVTVSS”, the entry is “high polyreactivity”; as for “QVQLVESGGGLVQAGGSLRLSCAASGRISQGYAMGWYRQAPGKERELVAGISRSGGSTYYADSVKGRFTISRDNAKNTVYLQMNSLKPEDTAVYYCAARVRGRNASDYDYYYWGQGSQVTVSS”, “high polyreactivity”; as for “QVQLVESGGGLVQAGGSLRLSCAASGRISRVYVMGWYRQAPGKERELVAAISFRGGSTFYADSVKGRFTISRDNAKNTVYLQMNSLKPEDTAVYYCAATVYPLAYDYWGQGTQVTVSS”, “high polyreactivity”.
The entry for “QVQLVESGGGLVQAGGSLRLSCAASGRISSGYAMGWYRQAPGKERELVAAISSIGGRTYYADSVKGRFTISRDNAKNTVYLQMNSLKPEDTAVYYCNTYPYIQRTWWYDYWGQGTQVTVSS” is “high polyreactivity”; for “QVQLVESGGGLVQAGGSLRLSCAASGRISTFYAMGWYRQAPGKERELVAGIRWRGGSTYYADSVKGRFTISRDNAKNTVYLQMNSLKPEDTAVYYCNAVPRRRRYSRLGYWGQGTQVTVSS” it is “high polyreactivity”; for “QVQLVESGGGLVQAGGSLRLSCAASGRISTTNAMGWYRQAPGKERELVASITSGGGTNYADSVKGRFTISRDNAKNTVYLQMNCLKPEDTAVYYCAKRRSYFLHSYYSYGYWGQGTQVTVSS” it is “high polyreactivity”.
In the case of “QVQLVESGGGLVQAGGSLRLSCAASGRISTYNAMGWYIQAPGKERELVASITGGGSTNYADSVKGRFTISRDNAKNTVYLQMNSLKPEDTAVYYCNAKARGQRGYRKIYGYDYWGQGTQVTVSS”, the “polyreactivity (PSR sort gate)” value is on record as “high polyreactivity”.
In the case of “QVQLVESGGGLVQAGGSLRLSCAASGRISVFNAMGWYRQAPGKDRELVAAITNGGSTNYADSVKVRFTISRDNAKNTVYLLMNSLKPEDTAVYDCAASVGTYAYGRTVYRYDYWGQGTQVTVSS”, the “polyreactivity (PSR sort gate)” value is on record as “low polyreactivity”.
The entry for “QVQLVESGGGLVQAGGSLRLSCAASGRISVFNAMGWYRQAPGKERELVATITDGGSTYYADSVKGRFTISRDNAKNTVYLQMNSLKPEDTAVYYCAKKQVTTDVSSETFVLEMDYWGQGTQVTVSS” is “low polyreactivity”; for “QVQLVESGGGLVQAGGSLRLSCAASGRISVFYAMGWYRQAPGKERELVAAITRSGTTKYADSVKGRFTISRDNAKNTVYLQMNSLKPEDTAVYYCAADSSRFFYGVYNYRQYGYWGQGSQVTVSS” it is “high polyreactivity”.
